Measured values reported in patent US20110143963A1.
Residue numbers refer to the chain shown, from its start.

B1: circularly permutated PDZ domain (designed binder)
chain: PELGFSISGGVGGRGNPFRPDDDGIFVTRVQPEGPASKLLQPGDKIIQANGYSFINIEHGQAVSLLKTFQNTVELIIVREVGNGAKQEIRVRVEKD
B2: enhanced PDZ-a (designed binder)
chain: MKHHHHHHHHHHSSDYKDDDDKGENLYFQGSPELGFSISGGVGGRGNPFRPDDDGIFVTRVQPEGPASKLLQPGDKIIQANGYSFINIEHGQAVSLLKTFQNTVELIIVREVGNGAKQEIRVRVEKDGGSGGVSSVPTNLEVVAATPTSLLISWDASYYGVSYYRITYGETGGNSPVQEFTVPYSSSTATISGLKPGVDYTITVYAYSDYYGSHHYSPISINYRT
B3: enhanced PDZ-b (designed binder)
chain: MKHHHHHHHHHHSSDYKDDDDKGENLYFQGSPELGFSISGGVGGRGNPFRPDDDGIFVTRVQPEGPASKLLQPGDKIIQANGYSFINIEHGQAVSLLKTFQNTVELIIVREVGNGAKQEIRVRVEKDGGSGGVSSVPTNLEVVAATPTSLLISWDAYYDSHVSYYRITYGETGGNSPVQEFTVPGSKSTATISGLKPGVDYTITVYAHYNYHYYSSPISINYRT
B4: ePDZ-b1 (designed binder)
chain: B3 chain with Y158R, D159E, S160L, H161P

Legend:
[1] = target: SUMO-ARVCF fusion protein (yeast); experiment: SPR, equilibrium mode, target peptide fused to yeast SUMO
[2] = target: SH2 domain of human Grb2 (human), P62993; experiment: panel E, competition phage ELISA: wtSH2 (Grb2-SH2) phages incubated with free pY1208 peptide (0 to about 2200 nM), phages not bound to the free peptide captured and detected
Sequence of SH2 domain of human Grb2 (human), P62993 (P62993 56-153 limits assumed): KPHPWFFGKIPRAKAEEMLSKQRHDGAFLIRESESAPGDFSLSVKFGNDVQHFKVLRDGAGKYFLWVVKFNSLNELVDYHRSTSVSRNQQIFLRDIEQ

[3] = target: ARVCF peptide PQPVDSWV-COOH (eight-residue motif corresponding to the ARVCF C-terminus); experiment: SPR
[4] = target: δ-catenin peptide PASPDSWV-COOH; experiment: SPR
[5] = target: ARVCF peptide PQPVDSWV-COOH (eight-residue motif corresponding to the ARVCF C-terminus); experiment: SPR (BIAcore)
[6] = target: δ-catenin peptide PASPDSWV-COOH; experiment: SPR (BIAcore)
[7] = target: ARVCF peptide PQPVDSWV-COOH (eight-residue motif corresponding to the ARVCF C-terminus); experiment: SPR, ratio of Kd
[8] = target: δ-catenin peptide PASPDSWV-COOH; experiment: SPR, ratio of Kd
[9] = target: ARVCF peptide PQPVDSWV-COOH (eight-residue motif corresponding to the ARVCF C-terminus); experiment: IC50 for the ARVCF peptide; method not stated with the table
[10] = target: δ-catenin peptide PASPDSWV-COOH; experiment: SPR (BIAcore), column δ-Catenin; number at the left of panel F (on rate per paragraph 112), unit from the column head of Table 4
[11] = target: δ-catenin peptide PASPDSWV-COOH; experiment: SPR (BIAcore), column δ-Catenin; number at the right of panel F (off rate per paragraph 112), unit from the column head of Table 4
[12] = target: δ-catenin peptide PASPDSWV-COOH; experiment: SPR, ratio of Kd; ratio Kd(δ-catenin)/Kd(ARVCF) derived from the same SPR values, not a separate measurement
[13] = target: δ-catenin peptide PASPDSWV-COOH; experiment: SPR (BIAcore); SPR, soluble ePDZ-b; only a lower bound on Kd (very weak binding); same conditions as the other rows
[14] = target: ARVCF peptide with Ala substitution at position -4; experiment: SPR, Ala scan of the ARVCF peptide

| Binder | Kd [3] | koff [3] | kon [3] | Kd [5] | Affinity Enhancement (Kd of cpPDZFN for ARVCF / Kd of the clamp) [7] | Specificity Index (Kd for δ-catenin / Kd for ARVCF) [8] | IC50 [9] | further results |
| --- | --- | --- | --- | --- | --- | --- | --- | --- |
| B1 |  |  |  |  |  |  |  | Kd [1]: 11000 nM |
| NEPLYLNTFANTC (modifications not checked) [peptide corresponding to residues 1204-1216 of ErbB4 receptor (pY1208)] |  |  |  |  |  |  |  | IC50 [2]: 120 nM |
| B2 | 56 nM | 0.015 s⁻¹ | 290000 M⁻¹ s⁻¹ | 56 nM | 520 fold | 8 fold | 40 nM | Kd [4]: 429 nM; Kd [6]: 430 nM; kon [10]: 250000 M⁻¹ s⁻¹; koff [11]: 0.11 s⁻¹ |
| B3 | 56 nM | 0.011 s⁻¹ | 190000 M⁻¹ s⁻¹ | 56 nM | 520 fold |  | 59 nM | Specificity Index (Kd for δ-catenin / Kd for ARVCF) [12]: > 178 fold; Kd [13]: > 10000 nM |
| B4 | 5 nM | < 0.00037 s⁻¹ | 73000 M⁻¹ s⁻¹ |  | 4960 fold | > 2000 fold |  | fold reduction in affinity against the wild-type ARVCF peptide [14]: > 200 fold |
